Data on 4 molecules can be found in patent publication US20140221622A1 (AbbVie / Abbott, published 2014).

Like-named read-outs stand apart in the source and are kept apart here.

Test [1] has as its target EGFR on EGFR-expressing target cells (UniProt P00533 25-1210, limits assumed). The experiment in a line: cell-based or functional assay.
The target of the next test is T1, CD3 on Jurkat cells (UniProt P07766 23-207).
T1 construct: whole, on cells; CD3 is a multi-chain complex; also called CD3 antigen
The test is described as follows: flow cytometry on Jurkat cells, Alexa Fluor 488 anti-human IgG Fc. For orientation: In flow cytometry, cells or beads pass a laser one at a time.

Test [2] deals with T2, CD40 on CD40-overexpressing HEK 293 cells (UniProt P25942 21-277, limits assumed). The experiment in a line: cell-based or functional assay.
Test [3] addresses T2, CD40 on CD40-overexpressing HEK 293 …. The test is described as follows: flow cytometry on CD40-overexpressing HEK 293 cells, APC anti-human Fc.
Experimental: Followed by 30 min incubation on ice with an APC-conjugated anti-human Fc antibody. Cells then are washed twice and resuspended in PBS/FBS. Fluorescence was measured using a Becton Dickinson FACSCalibur (Becton Dickinson, San Jose, Calif.).
Test [4] has the same target. Described as above. The source holds these as a separate data set.
Experimental: First, the CD40-overexpressing HEK 293 cells were stained with hIgG1 or testing material at a range of 0.01 μg/ml to 10 μg/ml. Followed by 30 min incubation on ice with an APC-conjugated anti-human Fc antibody. Cells then are washed twice and resuspended in PBS/FBS. Fluorescence was measured using a Becton Dickinson FACSCalibur (Becton Dickinson, San Jose, Calif.).
The binding of proteins were examined by FACS.
Test [5] has as its target c-Met on tumor cell lines (A549, IM-95, SNU-5, SNU-620) (UniProt P08581 25-1390, limits assumed). The experiment in a line: cell-based or functional assay.
In test [6] the target is T3, Neonatal Fc receptor (FcRn) on CHO-FcRnGPI cells.
T3 construct: whole, on cells; nothing more is said; also called FcRn receptors
The test is described as follows: flow cytometry on CHO-FcRnGPI cells, pH 6.4.
Experimental: CHO-FcRnGPI cells (Stable FcRn receptor expressor) and CHO-pBudl l cells (non-FcRn expressor) were aliquotted into 96-well plates at 1×10⁵ cells/well. Cells were resuspended in 150 μl FACS buffer. […] 30 μl of diluted antibody or half-Ig binding protein was added to each well and incubated on ice for 1 hour. Following 2 washes with FACS buffer, 50 μl of secondary antibody R-phycoerythrin-conjugated AfiniPure F(ab′)2 Fragment goat anti-human IgG (Jackson ImmunoResearch, West Grove, Pa.) diluted in FACS buffer pH 6.4 or pH7.4 was added. The mixture was incubated for 30 min on ice. The cells were resuspended in 100 μl PBS with 1% FBS (Invitrogen, Carlsbad, Calif.) and 2 μg/ml propidium iodide (Invitrogen, Carlsbad, Calif.) of the corresponding pH. Final FACS data were acquired on a FACScan (Becton Dickinson, Franklin Lakes, N.J.).

The target of test [7] is T4, rhcMetECD (cMet extracellular domain) (human, UniProt P08581 25-932).
T4 construct: extracellular domain; also called cMet antigen
The experiment in a line: SPR (Biacore 3000), apparent stoichiometry at saturating rhcMetECD. In general terms: In SPR one partner is held on a chip, and binding of the other changes the refractive index at the surface.
Text: Unreacted moieties on the biosensor surface were blocked with ethanolamine. Modified carboxymethyl dextran surface in flowcell 2 and 4 was used as a reaction surface. Unmodified carboxymethyl dextran without goat anti-human IgG in flow cell 1 and 3 was used as the reference surface. For kinetic analysis, rate equations derived from the 1:1 Langmuir binding model were fitted simultaneously to association and dissociation phases of all ten injections (using global fit analysis) using the Bioevaluation 4.0.1 software. Purified MBody samples were diluted in HEPES-buffered saline for capture across goat anti-human IgG Fc specific reaction surfaces and injected over reaction matrices at a flow rate of 5 ml/min. […] The equilibrium dissociation constant (M) of the reaction between MBody and rhcMetECD was then calculated from the kinetic rate constants by the following formula: KD=koff/kon. Aliquots of rhcMetECD samples were also simultaneously injected over a blank reference and reaction CM surface to record and subtract any nonspecific binding background to eliminate the majority of the refractive index change and injection noise. […] The apparent stoichiometry of the captured MBody-rhcMetECD complex was calculated under saturating binding conditions (steady-state equilibrium) using the following formula:

Test [8] has as its target T5, biotin-labeled cMet (UniProt P08581 25-932, limits assumed, biotin label (site not stated)).
T5 construct: also called cMet antigen
The test is described as follows: ELISA: antibody captured on anti-IgG Fc coat, bound biotin-labeled cMet detected with streptavidin-HRP. For orientation: ELISA stands for enzyme-linked immunosorbent assay.

In test [9] the target is T5, biotin-labeled cMet. The description is as above. The source holds these as a separate data set.
Experimental: cMet binding ELISA was performed to characterize the antigen binding property of cMet antibodies. 96-well ELISA plates were coated with 100 μl/well 5 μg/ml anti-mouse IgG Fc in PBS at 4° C. overnight. After 3 washes with PBS/0.05% Tween®20, the plates were blocked with 5% milk in PBS for 1 hour at room temperature. After another 3 washes with PBS/0.05% Tween®20, 100 μl cMet antibody was added to each well followed by an incubation of 1 hour at room temperature. Binding biotin-labeled cMet was detected by Streptavidin-horseradish peroxidase (KPL, Gaithersburg, Md.) and tetramethylbenzidine (Thermo Scientific, Rockford, Ill.). Final absorbances were acquired at 450 nm after stopping the reactions with 2 mol/L H₂SO₄. […] The terms EC₅₀ and IC₅₀ may be used interchangeably in this Example to reflect the concentration of the antibody which induces a response halfway between the baseline and the maximum after a specified exposure time.
Test [10] addresses T4, rhcMetECD (cMet extracellular domain). The experiment in a line: SPR (Biacore 3000), binding protein captured on anti-human IgG Fc, rhcMetECD injected, 1:1 Langmuir fit, 25 C.
Experimental: The kinetics of MBody binding to rhcMetECD (extracellular domain) was determined by surface plasmon resonance-based measurements with a Biacore 3000 instrument (Biacore AB, Uppsala, Sweden) using HBS-EP (10 mM HEPES, pH 7.4, 150 mM NaCl, 3 mM EDTA, and 0.005% surfactant P20) at 25° C. […] Approximately, 5000 RU of goat anti-human IgG Fcγ fragment specific polyclonal antibody (Pierce Biotechnology Inc, Rockford, Ill.) diluted in 10 mM sodium acetate (pH 4.5) was directly immobilized across a CM5 research grade biosensor chip using a standard amine coupling kit according to manufacturer's instructions and procedures at 25 mg/ml. Unreacted moieties on the biosensor surface were blocked with ethanolamine. Modified carboxymethyl dextran surface in flowcell 2 and 4 was used as a reaction surface. Unmodified carboxymethyl dextran without goat anti-human IgG in flow cell 1 and 3 was used as the reference surface. For kinetic analysis, rate equations derived from the 1:1 Langmuir binding model were fitted simultaneously to association and dissociation phases of all ten injections (using global fit analysis) using the Bioevaluation 4.0.1 software. Purified MBody samples were diluted in HEPES-buffered saline for capture across goat anti-human IgG Fc specific reaction surfaces and injected over reaction matrices at a flow rate of 5 ml/min. […] The equilibrium dissociation constant (M) of the reaction between MBody and rhcMetECD was then calculated from the kinetic rate constants by the following formula: KD=koff/kon. Aliquots of rhcMetECD samples were also simultaneously injected over a blank reference and reaction CM surface to record and subtract any nonspecific binding background to eliminate the majority of the refractive index change and injection noise. Surfaces were regenerated with two subsequent 25 ml injections of 10 mM Glycine (pH 1.5) at a flow rate of 5 ml/min.

T4 sequence (P08581 25-932): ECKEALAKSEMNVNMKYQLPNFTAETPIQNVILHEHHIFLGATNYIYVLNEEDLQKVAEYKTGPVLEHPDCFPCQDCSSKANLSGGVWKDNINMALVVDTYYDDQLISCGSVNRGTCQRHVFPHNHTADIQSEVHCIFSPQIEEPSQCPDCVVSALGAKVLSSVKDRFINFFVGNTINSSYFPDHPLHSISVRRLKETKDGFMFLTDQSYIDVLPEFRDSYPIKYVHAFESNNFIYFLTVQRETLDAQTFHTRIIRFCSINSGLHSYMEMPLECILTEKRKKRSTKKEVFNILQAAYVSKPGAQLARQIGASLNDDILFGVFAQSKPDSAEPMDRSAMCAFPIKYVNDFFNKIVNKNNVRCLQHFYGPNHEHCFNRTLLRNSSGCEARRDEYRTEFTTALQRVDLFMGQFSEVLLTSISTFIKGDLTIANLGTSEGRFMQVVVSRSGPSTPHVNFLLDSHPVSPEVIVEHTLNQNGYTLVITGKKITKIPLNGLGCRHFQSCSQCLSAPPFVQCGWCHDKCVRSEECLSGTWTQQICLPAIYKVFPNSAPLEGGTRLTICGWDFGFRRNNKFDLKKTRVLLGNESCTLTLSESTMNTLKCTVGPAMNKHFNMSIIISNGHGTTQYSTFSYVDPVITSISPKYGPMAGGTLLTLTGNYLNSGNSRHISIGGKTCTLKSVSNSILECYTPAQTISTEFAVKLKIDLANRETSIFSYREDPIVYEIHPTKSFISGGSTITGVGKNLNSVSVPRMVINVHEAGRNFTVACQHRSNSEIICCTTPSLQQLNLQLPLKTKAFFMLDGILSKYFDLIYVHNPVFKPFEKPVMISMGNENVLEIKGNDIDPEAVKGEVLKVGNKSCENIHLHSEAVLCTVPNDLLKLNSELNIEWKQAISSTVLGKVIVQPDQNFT
T2 sequence (P25942 21-277 limits assumed): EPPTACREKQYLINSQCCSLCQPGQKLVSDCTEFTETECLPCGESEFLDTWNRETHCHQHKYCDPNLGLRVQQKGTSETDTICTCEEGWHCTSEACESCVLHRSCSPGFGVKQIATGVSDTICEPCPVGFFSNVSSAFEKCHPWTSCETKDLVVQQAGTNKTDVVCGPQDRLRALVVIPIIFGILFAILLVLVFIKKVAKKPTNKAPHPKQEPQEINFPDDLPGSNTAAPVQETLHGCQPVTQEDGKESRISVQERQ
T3 sequence (P55899 24-297, chain 1 of 2): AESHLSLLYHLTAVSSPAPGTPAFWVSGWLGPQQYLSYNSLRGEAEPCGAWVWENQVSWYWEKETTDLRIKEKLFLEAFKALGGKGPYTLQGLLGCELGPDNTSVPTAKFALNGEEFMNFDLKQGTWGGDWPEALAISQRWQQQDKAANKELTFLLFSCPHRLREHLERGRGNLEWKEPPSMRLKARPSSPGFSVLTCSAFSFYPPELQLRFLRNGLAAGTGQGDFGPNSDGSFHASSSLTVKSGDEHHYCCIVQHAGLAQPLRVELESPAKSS
T3 sequence (P61769 21-119, chain 2 of 2, further chain): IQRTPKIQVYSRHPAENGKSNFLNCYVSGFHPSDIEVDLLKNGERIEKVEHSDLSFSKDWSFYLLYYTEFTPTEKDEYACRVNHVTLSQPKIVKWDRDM
T5 sequence (P08581 25-932 limits assumed): as the sequence (P08581 25-932) above
c-Met on tumor cell lines (A549, IM-95, SNU-5, SNU-620), sequence (P08581 25-1390 limits assumed): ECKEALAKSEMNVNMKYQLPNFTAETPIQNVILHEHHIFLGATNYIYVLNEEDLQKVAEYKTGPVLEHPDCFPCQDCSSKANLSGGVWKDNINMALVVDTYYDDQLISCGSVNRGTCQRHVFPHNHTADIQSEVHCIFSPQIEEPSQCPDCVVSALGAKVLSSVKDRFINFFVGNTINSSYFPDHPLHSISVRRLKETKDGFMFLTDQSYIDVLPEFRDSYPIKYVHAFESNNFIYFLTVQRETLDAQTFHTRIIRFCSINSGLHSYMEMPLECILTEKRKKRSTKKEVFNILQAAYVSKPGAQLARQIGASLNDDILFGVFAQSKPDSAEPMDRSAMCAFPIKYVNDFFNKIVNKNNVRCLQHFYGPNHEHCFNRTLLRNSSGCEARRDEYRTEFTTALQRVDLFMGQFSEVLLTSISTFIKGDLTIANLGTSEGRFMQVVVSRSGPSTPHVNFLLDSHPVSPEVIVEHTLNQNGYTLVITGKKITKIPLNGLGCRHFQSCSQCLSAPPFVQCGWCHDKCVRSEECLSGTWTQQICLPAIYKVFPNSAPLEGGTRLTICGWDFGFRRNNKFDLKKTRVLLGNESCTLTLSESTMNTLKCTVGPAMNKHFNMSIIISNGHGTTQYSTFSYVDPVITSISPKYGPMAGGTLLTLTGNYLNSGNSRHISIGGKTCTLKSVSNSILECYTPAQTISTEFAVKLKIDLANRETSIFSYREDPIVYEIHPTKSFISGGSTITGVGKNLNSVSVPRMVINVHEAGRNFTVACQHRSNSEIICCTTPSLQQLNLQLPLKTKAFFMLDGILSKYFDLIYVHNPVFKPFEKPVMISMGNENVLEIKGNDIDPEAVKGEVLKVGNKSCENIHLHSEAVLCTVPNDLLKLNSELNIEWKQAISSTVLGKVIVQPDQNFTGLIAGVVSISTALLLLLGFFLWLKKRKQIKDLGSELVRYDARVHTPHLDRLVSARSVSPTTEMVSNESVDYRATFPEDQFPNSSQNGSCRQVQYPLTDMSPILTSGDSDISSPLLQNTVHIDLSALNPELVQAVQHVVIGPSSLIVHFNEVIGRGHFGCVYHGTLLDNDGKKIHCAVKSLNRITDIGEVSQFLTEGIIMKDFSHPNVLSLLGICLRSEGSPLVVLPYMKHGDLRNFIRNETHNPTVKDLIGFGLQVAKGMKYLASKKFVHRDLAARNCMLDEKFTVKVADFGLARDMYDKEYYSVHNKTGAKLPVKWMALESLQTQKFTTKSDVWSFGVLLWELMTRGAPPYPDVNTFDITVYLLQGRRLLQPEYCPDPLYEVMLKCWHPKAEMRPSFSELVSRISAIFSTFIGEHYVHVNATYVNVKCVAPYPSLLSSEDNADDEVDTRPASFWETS
Experimental for CD3 on Jurkat cells: 0.5×10⁶ of Jurkat or NCI-N87 cells were washed with FACS buffer (1% BSA/PBS) and resuspended in 50 ul of FACS buffer. mAbs or Fab-bodies were prepared in 50 ul of FACS buffer and mixed with cells and incubated at 4° C. for 1 hr.

B1: DB001 DVD-Ig (CD3 and EGFR) (bispecific antibody)
VH: QVQLQESGPGLVKPSQTLSLTCTVSGYSISSDFAWNWIRQPPGKGLEWMGYISYSGNTRYQPSLKSRITISRDTSKNQFFLKLNSVTAADTATYYCVTAGRGFPYWGQGTLVTVSSASTKGPEVQLVESGGGLVQPGGSLRLSCAASGFTFSTYAMNWVRQAPGKGLEWVGRIRSKYNNYATYYADSVKDRFTISRDDSKNTAYLQMNSLRAEDTAVYYCTRHGNFGNSYVSWFAYWGQGTLVTVSS
VL: DIQMTQSPSSMSVSVGDRVTITCHSSQDINSNIGWLQQKPGKSFKGLIYHGTNLDDGVPSRFSGSGSGTDYTLTISSLQPEDFATYYCVQYAQFPWTFGGGTKLEIKTVAAPSVFIFPPDAQVTQSPSSLSASVGDRVTITCRSSTGAVTTSNYANWVQEKPGKLFKGLIGGTNKRAPGVPSRFSGSGSGTDATLTISSLQPEDFATYFCALWYSNLWVFGGGTKVEIKR
notes: also called parental DVD-Ig
By EC50 is commonly meant the concentration that produces a half-maximal response. Higher therefore signals lower potency in that assay. B1: the “Redirected Cytotoxicity (rCTL), EC50” value in [1] was determined as 1.5 nM. Further, in the test with CD3 on Jurkat cells, the concentration giving a half-maximal response (EC50) is 74 nM.

B2: Anti-CD40 Ig (21.4.1 variable domains on human Cg1/Ck) (antibody, human IgG1, kappa)
heavy: not shown
light: DIQMTQSPSSVSASVGDRVTITCRASQGIYSWLAWYQQKPGKAPNLLIYTASTLQSGVPSRFSGSGSGTDFTLTISSLQPEDFATYYCQQANIFPLTFGGGTKVEIKRTVAAPSVFIFPPSDEQLKSGTASVVCLLNNFYPREAKVQWKVDNALQSGNSQESVTEQDSKDSTYSLSSTLTLSKADYEKHKVYACEVTHQGLSSPVTKSFNRGEC
For the molecule B2, the “agonist activity, NFkB-SEAP reporter in HEK 293 cells, EC50” value in test [2] worked out at 0.12 µg/mL. Further, the figures for the concentration giving a half-maximal response (EC50) in test [3] and in [4] were 0.24 µg/mL and 0.084 µg/mL, respectively.

B3: cMet Ig (anti-cMet antibody, 5D5 variable domains on human Cg1/Ck) (antibody, human IgG1, kappa)
heavy: not shown
light: DFMMSQSPSSLTVSVGEKVTVSCKSSQSLLYTSSQKNYLAWYQQKPGQSPKLLIYWASTRESGVPDRFTGSGSGTDFTLTITSVKADDLAVYYCQQYYAYPWTFGGGTKLELKRTVAAPSVFIFPPSDEQLKSGTASVVCLLNNFYPREAKVQWKVDNALQSGNSQESVTEQDSKDSTYSLSSTLTLSKADYEKHKVYACEVTHQGLSSPVTKSFNRGEC
notes: VH/VL cloned from hybridoma HB-11895 (5D5.11.6) into pHybE-hCg1,z,non-a and pHybE-hCk; also called cMet mAb; parental cMet mAb
In general, Kd refers to the equilibrium constant for the complex coming apart. Higher therefore signals weaker binding. What is called koff is a measure of how fast the partners let go of each other. A low value points to a long-lived complex. The term kon denotes a measure of how fast the partners come together. A lower kon goes with slower complex formation. On to B3, for which the “Inhibition of IM95 Proliferation, EC50” value in test [5] worked out at 0.17 µg/mL. In addition, the EC50 in test [6] was found to be 53.3 µg/mL; in the test with biotin-labeled cMet [8], 0.3 nM; with biotin-labeled cMet [9] it was 0.35 nM. In addition, the Stoichiometry in test [7] came out at 1.51. This molecule also gave a dissociation constant Kd in test [10] of 2.67 nM. Further, the off-rate constant (koff) in test [10] came to 0.000214 s⁻¹. This molecule gave an on-rate constant (kon) in test [10] of 80300 M⁻¹ s⁻¹.

B4: cMet mAb KH (cMet mAb with knobs-into-holes mutations) (antibody, human IgG1, kappa)
heavy 1: not shown
heavy 2: not shown
light: B3 light
As for B4, a half-maximal effect in [6] (EC50) was put at 44.4 µg/mL. Moreover, the Stoichiometry in [7] was determined as 1.53. In test [10], this molecule gave a dissociation constant Kd of 2.08 nM, a koff of 0.000195 s⁻¹ and a kon of 93600 M⁻¹ s⁻¹.
